B1: TRIM55 (parent)
chain: FQMEKIEHGYENMNHFTVNLNREE
B2: KLHL12 (parent)
chain: REESLPNLLQYVRMPLLTPRYITD

Variants of: B1
Test: protein stability index of a GFP-peptide fusion (GPS, HEK-293T) (PSI 1-6); higher = more stable
Conditions: c terminus: a fixed tail appended
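Note: lentivirally expressed fusions sorted by FACS into six bins by GFP to DsRed ratio, PSI derived from sequencing read proportions per bin multiplied by bin number.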

Variant | protein stability index
E23F | 1.88
E23A | 1.77
M3W | 2.11
M3T | 3.44
M3H | 3.43
M3C | 2.83
F1A | 4.71
F1G | 4.78
N19V | 2.29
N19D | 3.37
Q2C | 2.57
Q2W | 2.62
Q2L | 2.96
Q2M | 3.42
Q2N | 3.8
R22F | 1.98
R22T | 2.99
Y10D | 3.31
Y10L | 3.08
Y10C | 2.74
Y10V | 3.35
Y10W | 2.42
I6H | 3.24
E11Y | 2.08
E11M | 1.98
E24F | 1.77

Variant | protein stability index
E24V | 2.49
E24K | 2.57
E24I | 1.98
L20D | 3.47
L20Y | 2.42
N12Y | 1.84
F16K | 4.52
F16I | 3.65
F16N | 4.31
V18L | 3.08
V18R | 3.73
V18C | 2.03
T17Y | 1.92
T17R | 3.1
T17C | 2.49
M13F | 2.82
E7G | 2.1
E7K | 2.05
E7A | 2.45
G9T | 3.07
G9P | 2.93
G9I | 2.4
G9N | 3.26
N21G | 2.86
H8E | 3.51
H8N | 2.89

Variants of: B2
Test: as above
Conditions: c terminus: a fixed tail appended

Variant | protein stability index
N7P | 3.19
N7E | 2.34
N7F | 2.23
N7I | 1.9
N7Y | 1.71
N7W | 3.17
N7R | 2.3
N7Q | 2.65
N7D | 2.93
N7L | 2.01
N7A | 2.64
N7H | 2.44
N7M | 2.03
N7G | 2.63
N7V | 2.07
N7S | 2.26
N7T | 2.1
N7K | 2.73
N7C | 2.35
E3K | 2.78
E3Q | 2.72
E3S | 2.14
E3R | 2.83
E3I | 2.02

Variant | protein stability index
E3A | 2.54
E3L | 2.11
E3C | 2.5
E3V | 2.45
E3D | 2.2
E3P | 2.19
E3M | 1.9
E3Y | 1.71
E3H | 2.23
E3T | 2.67
E3N | 2.42
E3W | 2.02
E3F | 1.95
E3G | 2.56
M14L | 2.35
M14V | 2.87
M14Q | 2.88
M14A | 2.42
M14W | 2.13
M14C | 2.02
M14T | 2.97
M14I | 2.56
M14F | 2.09
M14Y | 2.58

Variant | protein stability index
M14S | 3.13
M14R | 2.68
M14D | 3.17
M14N | 2.4
M14K | 3.46
M14E | 3.52
M14G | 3.11
M14P | 3.36
M14H | 2.89
R1Y | 1.82
R1E | 2.8
R1G | 2.23
R1I | 1.83
R1D | 2.63
R1K | 2.52
R1P | 2.16
R1M | 2.25
R1N | 2.72
R1C | 1.96
R1T | 2.19
R1L | 2.83
R1V | 2.35
R1W | 1.61
R1S | 2.7

Variant | protein stability index
R1H | 2.18
R1F | 2.43
R1A | 2.23
R1Q | 2.31
S4T | 2.34
S4V | 1.82
S4W | 1.9
S4F | 2.15
S4L | 1.89
S4G | 2.69
S4R | 2.5
S4Q | 2.51
S4E | 2.72
S4C | 2.71
S4A | 2.65
S4I | 2.16
S4N | 1.93
S4K | 2.41
S4M | 2.21
S4H | 2.51
S4D | 2.56
S4P | 2.79
S4Y | 2.45
L8V | 2.53

Variant | protein stability index
L8Y | 2.67
L8H | 3.27
L8T | 3.12
L8Q | 3.17
L8F | 2.4
L8R | 2.98
L8K | 2.98
L8S | 3.21
L8C | 2.29
L8E | 3
L8G | 2.79
L8P | 3.18
L8I | 2.41
L8M | 2.69
L8D | 3.75
L8N | 3.22
L8A | 3.24
L8W | 2.12
L9I | 2.32
L9D | 3.1
L9C | 3.33
L9W | 2.49
L9F | 2.27
L9Y | 2.62

Variant | protein stability index
L9R | 3.14
L9N | 3.61
L9H | 3.29
L9G | 3.03
L9M | 2.44
L9S | 3.36
L9P | 3.07
L9T | 3.45
L9E | 3.23
L9A | 2.97
L9V | 2.51
L9K | 2.57
L9Q | 3.77
P15Q | 2.45
P15D | 2.01
P15S | 3.06
P15I | 3.9
P15N | 2.42
P15W | 2
P15G | 3.67
P15K | 1.57
P15V | 2.34
P15F | 2.24
P15R | 1.69

Variant | protein stability index
P15A | 1.58
P15E | 2.54
P15T | 2.65
P15Y | 4.19
P15L | 4.9
P15H | 2.65
P15M | 2.48
E2Q | 2.53
E2D | 2.38
E2M | 2.4
E2P | 2.56
E2W | 3.14
E2Y | 2.83
E2V | 2.63
E2K | 2.31
E2R | 2.85
E2C | 3.52
E2S | 3.42
E2H | 2.92
E2F | 2.4
E2I | 2.5
E2A | 3.56
E2T | 3.35
E2L | 2.47

Variant | protein stability index
E2G | 3.19
E2N | 2.51
L5G | 2.67
L5W | 2.21
L5T | 2.79
L5M | 2.9
L5A | 3.47
L5E | 3.4
L5S | 2.8
L5D | 3.15
L5C | 2.79
L5N | 2.52
L5Q | 2.81
L5R | 2.52
L5P | 2.75
L5I | 1.83
L5V | 2.59
L5F | 2.16
L5K | 2.65
L5Y | 2.61
L5H | 2.51
Y11C | 2.82
Y11R | 3.21
Y11K | 2.87

Variant | protein stability index
Y11V | 2.51
Y11P | 3.56
Y11D | 3.96
Y11Q | 3.42
Y11M | 2.34
Y11G | 3.52
Y11W | 1.96
Y11E | 3.9
Y11S | 3.33
Y11T | 3.06
Y11H | 2.88
Y11L | 2.09
Y11F | 2.92
Y11N | 3.47
Y11I | 2.68
Y11A | 2.76
P6C | 2.05
P6Q | 1.91
P6D | 2.51
P6W | 2.11
P6S | 2.31
P6M | 2.11
P6V | 1.6
P6N | 2.45

Variant | protein stability index
P6A | 2.66
P6K | 1.71
P6T | 2.13
P6E | 2.15
P6Y | 2.58
P6L | 2
P6H | 2.13
P6R | 2.59
P6G | 2.28
P6F | 1.93
P6I | 1.95
V12K | 2.81
V12A | 3.16
V12C | 1.98
V12D | 3.7
V12N | 3.1
V12I | 2.77
V12H | 2.74
V12Y | 2.6
V12G | 2.91
V12L | 1.86
V12P | 3.45
V12E | 3.85
V12M | 2.33

Variant | protein stability index
V12R | 3
V12W | 1.81
V12Q | 3.07
V12F | 1.86
V12S | 3.16
V12T | 3.01
Q10M | 1.56
Q10G | 2.45
Q10W | 1.17
Q10C | 2.39
Q10I | 4.07
Q10Y | 2.16
Q10P | 2.79
Q10H | 2.25
Q10A | 2.47
Q10D | 2.06
Q10F | 2.22
Q10R | 3.13
Q10L | 2.27
Q10K | 2.38
Q10N | 2.05
Q10T | 2.28
Q10S | 2.33
Q10E | 2.41

Variant | protein stability index
R13H | 2.38
R13T | 1.64
R13S | 1.52
R13P | 2.97
R13F | 2.06
R13M | 2.07
R13Y | 2.53
R13K | 2.67
R13L | 3.6
R13W | 2.84
R13D | 2.48
R13N | 2.58
R13G | 1.76
R13E | 2.84
R13A | 1.49
R13C | 3.21
R13Q | 2.31
R13V | 2.66
